From article PMC3686713

Tested on: OmpR (phosphorylated with acetyl phosphate) (Yersinia pseudotuberculosis IP31758)
Assay: EMSA

| Substance | binding |
| --- | --- |
| ompF promoter | 20 nM |
| T6SS-4 promoter | 40 nM |
